Laboratory results as given in the supplement of paper PMC10567573.

B1: RSPH3 (parent)
chain: VDVQTELYLEEIADRIIEVDMECQ

Variants of: B1
Assay: protein stability index of a GFP-peptide fusion (GPS, HEK-293T) (PSI 1-6); higher = more stable
Details: c terminus: a fixed tail appended
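Further: lentivirally expressed fusions sorted by FACS into six bins by GFP to DsRed ratio, PSI derived from sequencing read proportions per bin multiplied by bin number.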

Variant | protein stability index
VDVQTVLYLEEIADRIIEVDMECQ [E6V] | 2.24
HDVQTELYLEEIADRIIEVDMECQ [V1H] | 3.24
TDVQTELYLEEIADRIIEVDMECQ [V1T] | 3.75
WDVQTELYLEEIADRIIEVDMECQ [V1W] | 2.44
MDVQTELYLEEIADRIIEVDMECQ [V1M] | 2.39
LDVQTELYLEEIADRIIEVDMECQ [V1L] | 1.72
YDVQTELYLEEIADRIIEVDMECQ [V1Y] | 1.94
SDVQTELYLEEIADRIIEVDMECQ [V1S] | 3.88
PDVQTELYLEEIADRIIEVDMECQ [V1P] | 3.11
KDVQTELYLEEIADRIIEVDMECQ [V1K] | 2.79
EDVQTELYLEEIADRIIEVDMECQ [V1E] | 3.11
IDVQTELYLEEIADRIIEVDMECQ [V1I] | 1.64
NDVQTELYLEEIADRIIEVDMECQ [V1N] | 3.75
QDVQTELYLEEIADRIIEVDMECQ [V1Q] | 3.25
CDVQTELYLEEIADRIIEVDMECQ [V1C] | 2.36
DDVQTELYLEEIADRIIEVDMECQ [V1D] | 3.3
FDVQTELYLEEIADRIIEVDMECQ [V1F] | 1.55
ADVQTELYLEEIADRIIEVDMECQ [V1A] | 3.1
GDVQTELYLEEIADRIIEVDMECQ [V1G] | 2.86
RDVQTELYLEEIADRIIEVDMECQ [V1R] | 2.57
VDVHTELYLEEIADRIIEVDMECQ [Q4H] | 3.22
VDVYTELYLEEIADRIIEVDMECQ [Q4Y] | 1.66
VDVFTELYLEEIADRIIEVDMECQ [Q4F] | 3.48
VDVKTELYLEEIADRIIEVDMECQ [Q4K] | 2.43

Variant | protein stability index
VDVETELYLEEIADRIIEVDMECQ [Q4E] | 2.32
VDVNTELYLEEIADRIIEVDMECQ [Q4N] | 1.85
VDVATELYLEEIADRIIEVDMECQ [Q4A] | 2.19
VDVWTELYLEEIADRIIEVDMECQ [Q4W] | 2.27
VDVDTELYLEEIADRIIEVDMECQ [Q4D] | 1.45
VDVVTELYLEEIADRIIEVDMECQ [Q4V] | 3.19
VDVLTELYLEEIADRIIEVDMECQ [Q4L] | 1.97
VDVGTELYLEEIADRIIEVDMECQ [Q4G] | 3.62
VDVPTELYLEEIADRIIEVDMECQ [Q4P] | 2.39
VDVSTELYLEEIADRIIEVDMECQ [Q4S] | 2.7
VDVCTELYLEEIADRIIEVDMECQ [Q4C] | 2.29
VDVTTELYLEEIADRIIEVDMECQ [Q4T] | 2.47
VDVMTELYLEEIADRIIEVDMECQ [Q4M] | 2.07
VDWQTELYLEEIADRIIEVDMECQ [V3W] | 2.14
VDEQTELYLEEIADRIIEVDMECQ [V3E] | 2.66
VDMQTELYLEEIADRIIEVDMECQ [V3M] | 2.26
VDKQTELYLEEIADRIIEVDMECQ [V3K] | 2.7
VDHQTELYLEEIADRIIEVDMECQ [V3H] | 2.4
VDSQTELYLEEIADRIIEVDMECQ [V3S] | 2.56
VDRQTELYLEEIADRIIEVDMECQ [V3R] | 3.38
VDAQTELYLEEIADRIIEVDMECQ [V3A] | 3.22
VDPQTELYLEEIADRIIEVDMECQ [V3P] | 3.36
VDNQTELYLEEIADRIIEVDMECQ [V3N] | 2.99
VDCQTELYLEEIADRIIEVDMECQ [V3C] | 2.35

Variant | protein stability index
VDYQTELYLEEIADRIIEVDMECQ [V3Y] | 1.85
VDQQTELYLEEIADRIIEVDMECQ [V3Q] | 3.04
VDGQTELYLEEIADRIIEVDMECQ [V3G] | 3.74
VDDQTELYLEEIADRIIEVDMECQ [V3D] | 2.66
VDLQTELYLEEIADRIIEVDMECQ [V3L] | 3.01
VDTQTELYLEEIADRIIEVDMECQ [V3T] | 2.92
VTVQTELYLEEIADRIIEVDMECQ [D2T] | 2.39
VLVQTELYLEEIADRIIEVDMECQ [D2L] | 2.6
VPVQTELYLEEIADRIIEVDMECQ [D2P] | 3.08
VSVQTELYLEEIADRIIEVDMECQ [D2S] | 1.81
VMVQTELYLEEIADRIIEVDMECQ [D2M] | 3.88
VKVQTELYLEEIADRIIEVDMECQ [D2K] | 1.91
VYVQTELYLEEIADRIIEVDMECQ [D2Y] | 3.84
VAVQTELYLEEIADRIIEVDMECQ [D2A] | 1.63
VCVQTELYLEEIADRIIEVDMECQ [D2C] | 2.57
VGVQTELYLEEIADRIIEVDMECQ [D2G] | 1.81
VNVQTELYLEEIADRIIEVDMECQ [D2N] | 2.17
VQVQTELYLEEIADRIIEVDMECQ [D2Q] | 1.72
VEVQTELYLEEIADRIIEVDMECQ [D2E] | 2.51
VRVQTELYLEEIADRIIEVDMECQ [D2R] | 1.76
VIVQTELYLEEIADRIIEVDMECQ [D2I] | 2.61
VDVQFELYLEEIADRIIEVDMECQ [T5F] | 2.96
VDVQYELYLEEIADRIIEVDMECQ [T5Y] | 3.42
VDVQDELYLEEIADRIIEVDMECQ [T5D] | 3.17

Variant | protein stability index
VDVQQELYLEEIADRIIEVDMECQ [T5Q] | 2.52
VDVQPELYLEEIADRIIEVDMECQ [T5P] | 3.27
VDVQKELYLEEIADRIIEVDMECQ [T5K] | 3.87
VDVQSELYLEEIADRIIEVDMECQ [T5S] | 2.5
VDVQNELYLEEIADRIIEVDMECQ [T5N] | 3.23
VDVQCELYLEEIADRIIEVDMECQ [T5C] | 1.75
VDVQEELYLEEIADRIIEVDMECQ [T5E] | 3.08
VDVQMELYLEEIADRIIEVDMECQ [T5M] | 2.38
VDVQHELYLEEIADRIIEVDMECQ [T5H] | 2.42
VDVQGELYLEEIADRIIEVDMECQ [T5G] | 2.46
VDVQRELYLEEIADRIIEVDMECQ [T5R] | 3.09
VDVQAELYLEEIADRIIEVDMECQ [T5A] | 2.3
VDVQTEHYLEEIADRIIEVDMECQ [L7H] | 3.38
VDVQTEIYLEEIADRIIEVDMECQ [L7I] | 2.1
VDVQTEDYLEEIADRIIEVDMECQ [L7D] | 2.71
VDVQTEMYLEEIADRIIEVDMECQ [L7M] | 1.73
VDVQTEEYLEEIADRIIEVDMECQ [L7E] | 4.3
VDVQTECYLEEIADRIIEVDMECQ [L7C] | 3.01
VDVQTEFYLEEIADRIIEVDMECQ [L7F] | 1.79
VDVQTEKYLEEIADRIIEVDMECQ [L7K] | 3.96
VDVQTEGYLEEIADRIIEVDMECQ [L7G] | 4.11
VDVQTEAYLEEIADRIIEVDMECQ [L7A] | 3.2
